Data published in publication PMC9781407, “β-Xylosidase SRBX1 Activity from Sporisorium reilianum and Its Synergism with Xylanase SRXL1 in Xylose Release from Corn Hemicellulose” (Journal of Fungi, 2022).

Substrate: O=[N+]([O-])c1ccc(O[C@@H]2OC[C@@H](O)[C@H](O)[C@H]2O)cc1
Assay: purified protein
Assay type: biochemical, Sporisorium reilianum
Settings: 50 mM-type acetate buffer assay, pH 4, substrate 1-7 mM, temperature not stated for the kinetics

B1: β-xylosidase SRBX1 (Sporisorium reilianum SRZ2) (protein)
chain: ASLEHLNMLFHTRQADASNSTDSSSVNWNISSSDNSALATAPLAGTFYRGGPALADANSPFHPVTGNGGWEWAVVKARSVVGQLTLEEKVNLTAGITGGRCEGTLGRVDRFGIPELCFQDGPAGFRASDFVTVFPAGVTTAATWNRDLIYKRAAALGAEFVAKGVNVHLGPVTGGPLGRSPFQGRNWEGFGPDPYLHGEAAYYTVSGTQSAGVISTAKHFLAYEQETYRQLYAASDPFTLNPNNNTELTYSANLDDRTLHELYLWPFMNAVRAGTGALVCVYNRVNSTQGCESSKLLNEILKDELDYQGFVVTDWSAAFNTSNTYNGGSDVVMPGGMTGGYKNLVGGSDLVRALNAGEVKIERINDGITRLLTQWYLRGQDKGYPTVSYKDGYQNTIFNGTVVNEHRDVQGDHRKIVKEIGEEAVTLIYNKRSNKAGPQGNTDFGLGLPLAKKARVAVFGSDAGPNPYGANACQDWIGLGSQLCPANATSNGTQAVGWGSGAGFFPYLIDPLAGISEVAKENRGAVLHNLNDVGDDKNQMYVKQQAGLADASLVFVQARSGEDSDRHSLRLDADGDELIKLVASQSNNTIVVMHTVGPVLMGDWFDHPNITALVLPHLPGQESGSSLARVLYGDVNPSGKMPYSMLSDEDAKRYPKIVGSPASDPQVDFYDGLYIDYRAWDKMGLKPLIPFGHGISYTNYSYSNLHIQKAGDNCYAPSAFSGSFKSDKQPGGPGSLFQYLVEVSADVQNVGAMAGDEVAQLYVGYPEAANAPIKQLRGFDKVQGLEPGAASKQATFKLAKRDFSVWDVVKQKFEVVDGEYKIWVGKSSRMSDLTLKGSVTMQNGMVVGMSS
notes: native extracellular enzyme purified from S. reilianum culture supernatant by gel filtration; theoretical precursor 874 aa, signal peptide 1-23; monomer; 12 theoretical glycosylation sites; no tag
Km: 2500 µM
